B1: ASC06-03-IgG1 (antibody, V domains shown)
VH: QVQLQQSGGGLVQPGGSLRLSCAASGFTFSSYAMSWVRQAPGKGLEWVSAISGSGGSTYYADSVKGRFTISRDNSKNTLYLQMNSLRAEDTAVYYCAKDSFYGRAKGSWGQGTLVTVSS
VL: QSALTQPASVSGSPGQSITISCTGTSSDVGAYNYVSWYQQQPGKAPKLMIYGVSNRPSGVSNRFSGSKSGNAASLTISGLQAEDEADYYCSSYTSSSTYVFGTGTKLTVLG
notes: Full length IgG1
B2: ASC06-IgG1: parental (WT) ASIC1a-specific antagonist antibody; VL SEQ ID NO: 2, VH SEQ ID NO: 7, VH-CDR3 DSFYGYSKGD (antibody, V domains shown)
VH: QVQLQQSGGGLVQPGGSLRLSCAASGFTFSSYAMSWVRQAPGKGLEWVSAISGSGGSTYYADSVKGRFTISRDNSKNTLYLQMNSLRAEDTAVYYCAKDSFYGYSKGDWGQGTLVTVSS
VL: QSALTQPASVSGSPGQSITISCTGTSSDVGAYNYVSWYQQQPGKAPKLMIYGVSNRPSGVSNRFSGSKSGNAASLTISGLQAEDEADYYCSSYTSSSTYVFGTGTKLTVLG
modifications: IgG1 constant regions; Amino acid sequence VH of ASC06; Amino acid sequence VL of ASC06
B3: ASC06-03-IgG1: affinity-matured ASC06 derivative, VH-CDR3 DSFYGRAKGS (SEQ ID NO: 15) (antibody, V domains shown)
VH: QVQLQQSGGGLVQPGGSLRLSCAASGFTFSSYAMSWVRQAPGKGLEWVSAISGSGGSTYYADSVKGRFTISRDNSKNTLYLQMNSLRAEDTAVYYCAKDSFYGRAKGSWGQGTLVTVSS
VL: QSALTQPASVSGSPGQSITISCTGTSSDVGAYNYVSWYQQQPGKAPKLMIYGVSNRPSGVSNRFSGSKSGNAASLTISGLQAEDEADYYCSSYTSSSTYVFGTGTKLTVLG
B4: ASC06-02-IgG1: affinity-matured ASC06 derivative, VH-CDR3 DSFFGRAKGS (SEQ ID NO: 13) (antibody, V domains shown)
VH: QVQLQQSGGGLVQPGGSLRLSCAASGFTFSSYAMSWVRQAPGKGLEWVSAISGSGGSTYYADSVKGRFTISRDNSKNTLYLQMNSLRAEDTAVYYCAKDSFFGRAKGSWGQGTLVTVSS
VL: QSALTQPASVSGSPGQSITISCTGTSSDVGAYNYVSWYQQQPGKAPKLMIYGVSNRPSGVSNRFSGSKSGNAASLTISGLQAEDEADYYCSSYTSSSTYVFGTGTKLTVLG
B5: ASC06-01-IgG1: affinity-matured ASC06 derivative, VH-CDR3 DSYFGYSKGD (SEQ ID NO: 11) (antibody, V domains shown)
VH: QVQLQQSGGGLVQPGGSLRLSCAASGFTFSSYAMSWVRQAPGKGLEWVSAISGSGGSTYYADSVKGRFTISRDNSKNTLYLQMNSLRAEDTAVYYCAKDSYFGYSKGDWGQGTLVTVSS
VL: QSALTQPASVSGSPGQSITISCTGTSSDVGAYNYVSWYQQQPGKAPKLMIYGVSNRPSGVSNRFSGSKSGNAASLTISGLQAEDEADYYCSSYTSSSTYVFGTGTKLTVLG
B6: ASC06-01-IgG1 (antibody, V domains shown)
VH: QVQLQQSGGGLVQPGGSLRLSCAASGFTFSSYAMSWVRQAPGKGLEWVSAISGSGGSTYYADSVKGRFTISRDNSKNTLYLQMNSLRAEDTAVYYCAKDSYFGYSKGDWGQGTLVTVSS
VL: QSALTQPASVSGSPGQSITISCTGTSSDVGAYNYVSWYQQQPGKAPKLMIYGVSNRPSGVSNRFSGSKSGNAASLTISGLQAEDEADYYCSSYTSSSTYVFGTGTKLTVLG
notes: Full length IgG1
B7: ASC06-02-IgG1 (antibody, V domains shown)
VH: QVQLQQSGGGLVQPGGSLRLSCAASGFTFSSYAMSWVRQAPGKGLEWVSAISGSGGSTYYADSVKGRFTISRDNSKNTLYLQMNSLRAEDTAVYYCAKDSFFGRAKGSWGQGTLVTVSS
VL: QSALTQPASVSGSPGQSITISCTGTSSDVGAYNYVSWYQQQPGKAPKLMIYGVSNRPSGVSNRFSGSKSGNAASLTISGLQAEDEADYYCSSYTSSSTYVFGTGTKLTVLG
notes: Full length IgG1
B8: ASC06-04-IgG1 (antibody, V domains shown)
VH: QVQLQQSGGGLVQPGGSLRLSCAASGFTFSSYAMSWVRQAPGKGLEWVSAISGSGGSTYYADSVKGRFTISRDNSKNTLYLQMNSLRAEDTAVYYCAKDSFYGRAKGVWGQGTLVTVSS
VL: QSALTQPASVSGSPGQSITISCTGTSSDVGAYNYVSWYQQQPGKAPKLMIYGVSNRPSGVSNRFSGSKSGNAASLTISGLQAEDEADYYCSSYTSSSTYVFGTGTKLTVLG
notes: Full length IgG1
B9: ASC06-IgG1 (antibody, V domains shown)
VH: QVQLQQSGGGLVQPGGSLRLSCAASGFTFSSYAMSWVRQAPGKGLEWVSAISGSGGSTYYADSVKGRFTISRDNSKNTLYLQMNSLRAEDTAVYYCAKDSFYGYSKGDWGQGTLVTVSS
VL: QSALTQPASVSGSPGQSITISCTGTSSDVGAYNYVSWYQQQPGKAPKLMIYGVSNRPSGVSNRFSGSKSGNAASLTISGLQAEDEADYYCSSYTSSSTYVFGTGTKLTVLG
notes: Tested as full length IgG1; also called WT antibody ASC06-IgG1; parental ASC06-IgG1 antibody

Key:
[1] = biological target: T1, hASIC1a on CHO-K1 cells stably expressing hASIC1a (human, UniProt P78348 1-528); assay: cell-based or functional assay
T1 sequence (looked up): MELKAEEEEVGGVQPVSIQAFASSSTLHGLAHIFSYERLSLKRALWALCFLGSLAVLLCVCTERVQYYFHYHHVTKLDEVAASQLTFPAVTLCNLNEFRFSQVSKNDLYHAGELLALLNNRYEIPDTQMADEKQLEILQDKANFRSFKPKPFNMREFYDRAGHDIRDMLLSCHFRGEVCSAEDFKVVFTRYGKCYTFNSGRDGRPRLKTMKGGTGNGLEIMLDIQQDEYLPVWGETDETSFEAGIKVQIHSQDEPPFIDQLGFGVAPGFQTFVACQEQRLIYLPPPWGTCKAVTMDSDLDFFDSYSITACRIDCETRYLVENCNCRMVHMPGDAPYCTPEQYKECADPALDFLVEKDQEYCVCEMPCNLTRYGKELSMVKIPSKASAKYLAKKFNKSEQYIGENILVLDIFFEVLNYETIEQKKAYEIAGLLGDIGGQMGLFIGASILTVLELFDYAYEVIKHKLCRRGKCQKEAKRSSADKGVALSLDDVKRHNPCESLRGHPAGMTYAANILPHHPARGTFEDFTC

[2] = biological target: T2, mouse ASIC1a (mASIC1a-eYFP) (Mus musculus, UniProt Q6NXK8); assay: FACS-based binding assay, transiently transfected CHO-K1 cells (species selectivity); settings: double positive population
T2 construct: expressed in transfected cells; host or cells: CHO-K1 (transient)
T2 sequence (Q6NXK8 1-526): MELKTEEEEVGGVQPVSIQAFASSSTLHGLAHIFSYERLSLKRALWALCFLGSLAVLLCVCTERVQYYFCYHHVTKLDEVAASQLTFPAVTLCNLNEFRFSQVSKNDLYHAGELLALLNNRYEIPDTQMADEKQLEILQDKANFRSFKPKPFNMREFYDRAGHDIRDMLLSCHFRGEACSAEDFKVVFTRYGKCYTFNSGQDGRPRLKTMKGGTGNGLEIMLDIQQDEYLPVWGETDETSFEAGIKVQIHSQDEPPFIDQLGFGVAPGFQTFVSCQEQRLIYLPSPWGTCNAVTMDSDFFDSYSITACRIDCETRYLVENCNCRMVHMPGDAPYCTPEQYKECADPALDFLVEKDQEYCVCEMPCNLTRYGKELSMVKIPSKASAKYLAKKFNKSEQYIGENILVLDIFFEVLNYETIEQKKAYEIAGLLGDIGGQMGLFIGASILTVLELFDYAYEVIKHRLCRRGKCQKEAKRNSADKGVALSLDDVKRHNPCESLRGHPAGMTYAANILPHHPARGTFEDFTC
Protocol: (§1) To investigate the species selectivity of ASC06-IgG1 affinity-matured antibodies, plasmids encoding fusion proteins of eYFP with […] homologs of ASIC1a were constructed. These plasmids included those encoding human ASIC1a (hASIC1a-eYFP), mouse ASIC1a (mASIC1a-eYFP), and rat ASIC1a (rASIC1a-eYFP). CHO-K1 cells were transiently transfected with the ASIC1a-eYFP plasmids, and a fluorescence activated cell sorting (FACS)-based binding assay was carried out to determine binding to the homologs or isoforms of ASIC1a expressed on the cell surface. An isotype control was used as a negative control for binding (NC). ASC06-IgG1 was used as a positive control. Summarily, the CHO-K1 cells expressing the ASIC1a-eYFP (green) homologs were stained with the indicated antibody (red) and subjected to FACS.

[3] = biological target: T3, rat ASIC1a (rASIC1a-eYFP) (Rattus norvegicus, UniProt P55926); assay: as above; settings: double positive population
T3 construct: expressed in transfected cells; host or cells: CHO-K1 (transient)
T3 sequence (P55926 1-526): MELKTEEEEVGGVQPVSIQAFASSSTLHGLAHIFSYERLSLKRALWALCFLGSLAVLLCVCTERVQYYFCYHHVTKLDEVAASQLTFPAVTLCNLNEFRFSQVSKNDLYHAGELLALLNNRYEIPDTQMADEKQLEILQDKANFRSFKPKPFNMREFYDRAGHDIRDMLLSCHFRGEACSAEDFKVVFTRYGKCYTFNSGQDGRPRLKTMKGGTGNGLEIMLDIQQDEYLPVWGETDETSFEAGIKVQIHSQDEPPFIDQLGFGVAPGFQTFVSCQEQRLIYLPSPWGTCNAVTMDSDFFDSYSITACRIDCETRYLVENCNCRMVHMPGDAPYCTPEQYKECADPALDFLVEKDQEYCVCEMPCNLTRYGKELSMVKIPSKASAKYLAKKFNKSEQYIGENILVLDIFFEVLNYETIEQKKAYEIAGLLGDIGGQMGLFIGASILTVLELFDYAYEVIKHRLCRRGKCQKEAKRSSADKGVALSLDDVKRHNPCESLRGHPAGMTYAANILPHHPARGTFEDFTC
Protocol: as §1

ASIC1a = biological target: T4, ASIC1a (Homo sapiens, UniProt P78348); assay: Patch clamp whole-cell recording of acid-induced hASIC1a currents; assay type: cell-based; settings: 100 nM antibody
T4 construct: expressed in transfected cells
T4 sequence (P78348 1-528): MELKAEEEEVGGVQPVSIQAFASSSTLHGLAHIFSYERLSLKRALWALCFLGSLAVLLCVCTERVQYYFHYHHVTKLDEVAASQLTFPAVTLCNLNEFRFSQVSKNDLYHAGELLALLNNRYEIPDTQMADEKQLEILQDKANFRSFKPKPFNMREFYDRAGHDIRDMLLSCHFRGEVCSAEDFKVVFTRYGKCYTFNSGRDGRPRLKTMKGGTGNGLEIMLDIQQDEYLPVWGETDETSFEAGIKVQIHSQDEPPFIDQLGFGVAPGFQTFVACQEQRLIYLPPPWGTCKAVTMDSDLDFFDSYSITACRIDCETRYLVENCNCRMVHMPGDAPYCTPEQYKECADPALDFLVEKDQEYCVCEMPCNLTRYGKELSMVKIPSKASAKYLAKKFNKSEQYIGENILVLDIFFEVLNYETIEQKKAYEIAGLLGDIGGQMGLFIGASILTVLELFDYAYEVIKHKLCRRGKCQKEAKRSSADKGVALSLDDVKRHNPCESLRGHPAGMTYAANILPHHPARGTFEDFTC
Protocol: FIGS. 4A-4E show the effect of affinity-matured ASC06-IgG1 derivative antibodies on the hASIC1a currents. Shown are the representative current traces recorded from single CHO-K1 cells stably expressing hASIC1a in the absence or presence of 100 nM ASC06-IgG1 (FIG. 4A) or affinity-matured ASC06-IgG1 versions ASC06-01-IgG1 (FIG. 4B), ASC06-02-IgG1 (FIG. 4C), ASC06-03-IgG1 (FIG. 4D), or ASC06-04-IgG1 (FIG. 4E). Amiloride (30 μM) was used as a positive control. “Wash” represents the recovery of the current after the treatment of 100 nM indicated antibody followed by 15 min infusion of washing solution.
Whether the affinity-matured ASC06-IgG1 derivative antibodies have an effect on the acid-induced, hASIC1a-mediated electrical current in cells was tested. An hASIC1a overexpressing stable cell line was used as a model for these studies. Extracellular pH was decreased from pH 7.4 to pH 6.0 and the amplitudes of the hASIC1a-mediated inward currents were recorded in the whole-cell recording mode in the presence of the affinity-matured ASC06-IgG1 derivative antibodies (FIGS. 4A-4E). The ASIC1a inhibitor amiloride (30 μM) was used as a positive control for the inhibition of ASIC1a currents.

Row | Molecule | Percent inhibition of the acid induced-hASIC1a currents, 30 nM antibody (Patch Clamp) [1] | Percent inhibition of the acid induced-hASIC1a currents, 100 nM antibody (Patch Clamp) [1] | binding to cells expressing mASIC1a-eYFP [2] | binding to cells expressing rASIC1a-eYFP [3] | blockage of ASIC1a-mediated currents compared to ASC06-IgG1 (ASIC1a)
1 | B1 | 79.4% | 89.7% | – | – | –
2 | B2 | – | – | bound | bound | –
3 | B3 | – | – | bound | bound | stronger blockage
4 | B4 | – | – | bound | bound | stronger blockage
5 | B5 | – | – | bound | bound | –
6 | B6 | 20% | 49% | – | – | –
7 | B7 | 94.6% | 97.2% | – | – | –
8 | B8 | – | 96.7% | – | – | –
9 | B9 | 35.5% | 55.5% | – | – | –

Reference: patent US20230174642A1, “AFFINITY-MATURATED ANTI-ASIC1a ANTIBODIES” (SHANGHAITECH UNIVERSITY, priority 2019, published 2023)
